This is an account of results in patent US20260125469A1 (Hoffmann-La Roche, published 2026).

Residue numbers refer to the chain shown, from its start. Where two headings read alike, the source gives them in different places.

Test [1] deals with human CD3 on cells (CD3ε) (human, UniProt P07766 23-207). Briefly: cell-based or functional assay.
Test [2] addresses T1, Cynomolgus CD3ε stalk-Fc(knob)-Avi/CD3δ stalk-Fc(hole) (cynomolgus).
T1 construct: also called cynomolgus CD3ε/δ
Briefly: SPR, TCB captured by anti-PG antibody, antigen as analyte, 25°C. From the text: (§1) For affinity measurements, TCB molecules were captured on a C1 sensorchip (GE Healthcare) surface with immobilized anti-Fc(P329G) IgG (an antibody that specifically binds human IgG₁ Fc(P329G); “anti-PG antibody”—see WO 2017/072210, incorporated herein by reference). The experimental setup is schematically depicted in FIG. 3. Capture IgG was coupled to the sensorchip surface by direct immobilization of around 400 resonance units (RU) using the standard amine coupling kit (GE Healthcare Life Sciences).
(§2) Kinetic constants were derived using the Biacore T200 Evaluation Software (GE Healthcare Life Sciences), to fit rate equations for 1:1 Langmuir binding by numerical integration. The half-life (t_{1/2}) of the interaction was calculated using the formula t_{1/2}=ln2/koff.
(§3) To analyze the interaction to CD3, TCB molecules were captured for 240 s at 25 nM with a flow rate of 10 μl/min. Human and cynomolgus CD3F stalk-Fc(knob)-Avi/CD36-stalk-Fc(hole) were passed at a concentration of 0.14-100 nM with a flow rate of […] through the flow cells for 240 s. The dissociation was monitored for 800 s.

Test [3] has as its target T2, Human CD3ε stalk-Fc(knob)-Avi/CD3δ stalk-Fc(hole) (human).
T2 construct: Heterodimer of CD3 delta and CD3 epsilon ectodomains fused to human Fc with knob-into-hole; also called human CD3ε/δ; CD3 antigen
Described as above.
Text: as §1, §2, §3

Test [4] addresses T2, Human CD3ε stalk-Fc(knob)-Avi/CD3δ …. Briefly: SPR on immobilized human CD3ε/δ after stress, relative to sample kept at -80°C pH 6. As to the method:
In order to assess the effect of the deamidation site removal and its effect on the stability of the antibodies, the optimized anti-CD3 antibodies (in TCB format) were incubated for 14 days at 37° C., pH 7.4 and at 40° C., pH 6 and further analyzed by SPR for their binding capability to human CD3ε/δ. Samples stored at −80° C. pH 6 were used as reference. The reference samples and the samples stressed at 40° C. were in 20 mM His, 140 mM NaCl, pH 6.0, and the samples stressed at 37° C. in PBS, pH 7.4, all at a concentration of 1.0 mg/ml. After the stress period (14 days) samples in PBS were dialyzed back to 20 mM His, 140 mM NaCl, pH 6.0 for further analysis.
(§4) All SPR experiments were performed on a Biacore T200 instrument (GE Healthcare) at 25° C. with HBS-P+ (10 mM HEPES, 150 mM NaCl pH 7.4, 0.05% Surfactant P20) as running and dilution buffer. Biotinylated human CD3ε/δ (see Example 3, SEQ ID NOs 41 and 42) as well as biotinylated anti-huIgG (Capture Select, Thermo Scientific, #7103262100) were immobilized on a Series S Sensor Chip SA (GE Healthcare, #29104992), resulting in surface densities of at least 1000 resonance units (RU). Anti-CD3 antibodies with a concentration of 2 μg/ml were injected for 30 s at a flow rate of 5 μl/min, and dissociation was monitored for 120 s. The surface was regenerated by injecting 10 mM glycine pH 1.5 for 60 s. Bulk refractive index differences were corrected by subtracting blank injections and by subtracting the response obtained from a blank control flow cell. For evaluation, the binding response 5 seconds after injection end was taken. To normalize the binding signal, the CD3 binding was divided by the anti-huIgG response (the signal (RU) obtained upon capture of the CD3 antibody on the immobilized anti-huIgG antibody). The relative binding activity was calculated by referencing each temperature stressed sample to the corresponding, non-stressed sample.
The experiment was performed as described in Example 4, using the TCB molecules prepared in Example 7.

Test [5] shares this target. The description is as above. The protocol:
as §4
The experiment was performed as described in Example 4, using the monovalent IgG molecules prepared in Example 19.
The source holds these as a separate data set.

Test [6] has as its target T1, Cynomolgus CD3ε stalk-Fc(knob)-Avi/CD3δ …. Kind of test: SPR, monovalent IgG captured by anti-PG antibody, antigen as analyte, 25°C. The protocol: (§5) SPR experiments were performed as described in Example 3, with the monovalent IgG molecules prepared in Example 19.
(§6) To analyze the interaction to CD3, IgG molecules were captured for 240 s at 50 nM with a flow rate of 5 μl/min. Human and cynomolgus CD3F stalk-Fc(knob)-Avi/CD36-stalk-Fc(hole) were passed at a concentration of 0.061-250 nM with a flow rate of […] through the flow cells for 300 s. The dissociation was monitored for 800 s.

Test [7] concerns the target T2, Human CD3ε stalk-Fc(knob)-Avi/CD3δ …. The description is as above. As to the method:
as §5, §6

Sequence of human CD3 on cells (CD3ε) (P07766 23-207 limits assumed): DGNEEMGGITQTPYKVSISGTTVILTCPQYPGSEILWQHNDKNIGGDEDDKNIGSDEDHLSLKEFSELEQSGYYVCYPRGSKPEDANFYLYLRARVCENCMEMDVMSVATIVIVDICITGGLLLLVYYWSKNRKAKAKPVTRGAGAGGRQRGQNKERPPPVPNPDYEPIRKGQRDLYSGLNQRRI

B1: CEACAM5-TCB, CEACAM5 CD3 variant P004.042 (bispecific antibody, human IgG1, kappa, L234A L235A)
heavy 1: not shown
heavy 2: QVQLVQSGAEVKKPGSSVKVSCKASGFNIKDTYMHWVRQAPGQGLEWMGRIDPANGNSKYVPKFQGRVTITADTSTSTAYMELSSLRSEDTAVYYCAPFGYYVSDYAMAYWGQGTLVTVSSASTKGPSVFPLAPSSKSTSGGTAALGCLVEDYFPEPVTVSWNSGALTSGVHTFPAVLQSSGLYSLSSVVTVPSSSLGTQTYICNVNHKPSNTKVDEKVEPKSCDKTHTCPPCPAPEAAGGPSVFLFPPKPKDTLMISRTPEVTCVVVDVSHEDPEVKFNWYVDGVEVHNAKTKPREEQYNSTYRVVSVLTVLHQDWLNGKEYKCKVSNKALGAPIEKTISKAKGQPREPQVCTLPPSRDELTKNQVSLSCAVKGFYPSDIAVEWESNGQPENNYKTTPPVLDSDGSFFLVSKLTVDKSRWQQGNVFSCSVMHEALHNHYTQKSLSLSP
light 1: EIVLTQSPATLSLSPGERATLSCRAGESVDIFGVGFLHWYQQKPGQAPRLLIYRASNRATGIPARFSGSGSGTDFTLTISSLEPEDFAVYYCQQTNEDPYTFGQGTKLEIKRTVAAPSVFIFPPSDRKLKSGTASVVCLLNNFYPREAKVQWKVDNALQSGNSQESVTEQDSKDSTYSLSSTLTLSKADYEKHKVYACEVTHQGLSSPVTKSFNRGEC
light 2: EVQLLESGGGLVQPGGSLRLSCAASGFQFDNYAMNWVRQAPGKGLEWVSRIRTKYNEYATYYADSVKGRFTISRDDSKNTLYLQMNSLRAEDTAVYYCVRASNFPQSYVSYFGYWGQGTLVTVSSASVAAPSVFIFPPSDEQLKSGTASVVCLLNNFYPREAKVQWKVDNALQSGNSQESVTEQDSKDSTYSLSSTLTLSKADYEKHKVYACEVTHQGLSSPVTKSFNRGEC
notes: 2+1 IgG CrossFab, inverted; human IgG1 Fc, knob-into-hole, PGLALA; also called P004.042 in CEACAM5-TCB format
With B1, in test [1], the “EC50 24 h (pM), T-cell mediated lysis of CEACAM5-expressing LS180 tumor cells” value was 59.1 pM and the “EC50 48 h (pM), T-cell mediated lysis of CEACAM5-expressing LS180 tumor cells” value came out at 36.9 pM. In test [2], this molecule had a Kd of 0.641 nM, a koff of 0.00162 s⁻¹, an on-rate (kon) of 2.54e+06 M⁻¹ s⁻¹ and a t1/2 of 7.1 min. In test [3], this molecule came in with a dissociation constant Kd of 1.31 nM, a koff of 0.00261 s⁻¹, an on-rate constant (kon) of 2.02e+06 M⁻¹ s⁻¹ and a t1/2 of 4.42 min. Besides, in test [4], the “binding activity [%] after 2 weeks at pH 6.0/40°C” value is 100% and the “binding activity [%] after 2 weeks at pH 7.4/37°C” value turned out to be 99%.

B2: anti-CD3 antibody clone P035.093 in monovalent IgG format (antibody)
heavy: not shown
chain: DKTHTCPPCPAPEAAGGPSVFLFPPKPKDTLMISRTPEVTCVVVDVSHEDPEVKFNWYVDGVEVHNAKTKPREEQYNSTYRVVSVLTVLHQDWLNGKEYKCKVSNKALGAPIEKTISKAKGQPREPQVCTLPPSRDELTKNQVSLSCAVKGFYPSDIAVEWESNGQPENNYKTTPPVLDSDGSFFLVSKLTVDKSRWQQGNVFSCSVMHEALHNHYTQKSLSLSP
light: B1 light 2 with Q28T, D30S, N31S, T53S, E57N, Q106A, G113A
notes: also called monovalent IgG P035.093
As for B2, in test [5], the “binding activity [%] after 2 weeks at pH 6.0/40°C” value turned out to be 100% and the “binding activity [%] after 2 weeks at pH 7.4/37°C” value was 93%. In test [6], this molecule had a dissociation constant Kd of 0.224 nM, a koff of 0.000981 s⁻¹, an on-rate (kon) of 4.38e+06 M⁻¹ s⁻¹ and a t1/2 of 11.8 min. In test [7], this molecule had a Kd of 0.456 nM, a dissociation rate constant (koff) of 0.0014 s⁻¹, a kon of 3.08e+06 M⁻¹ s⁻¹ and a t1/2 of 8.25 min.

B3: CD3orig in monovalent IgG format (antibody)
heavy: not shown
chain: B2 chain
light: EVQLLESGGGLVQPGGSLRLSCAASGFTFSTYAMNWVRQAPGKGLEWVSRIRSKYNNYATYYADSVKGRFTISRDDSKNTLYLQMNSLRAEDTAVYYCVRHGNFGNSYVSWFAYWGQGTLVTVSSASVAAPSVFIFPPSDEQLKSGTASVVCLLNNFYPREAKVQWKVDNALQSGNSQESVTEQDSKDSTYSLSSTLTLSKADYEKHKVYACEVTHQGLSSPVTKSFNRGEC
notes: also called monovalent IgG CD3orig
For the molecule B3, in test [5], the “binding activity [%] after 2 weeks at pH 6.0/40°C” value worked out at 97% and the “binding activity [%] after 2 weeks at pH 7.4/37°C” value stood at 60%. In test [7], this molecule gave a Kd of 4.94 nM, a koff of 0.0029 s⁻¹, an on-rate constant (kon) of 587000 M⁻¹ s⁻¹ and a t1/2 of 3.98 min.
